Measurements as given in patent publication US6436691B1, “Chemical compounds” (Zeneca Limited, priority 1995, dated 2002).
Changes are numbered by the printed parent chain. In names and notes the source's numbering stands.

B1: [G251T,D253K]: HCPB mutant with G251T and D253K, (His)6-c-myc tag (protein, UniProt P15086 111-417, looked up, variant G251T D253K)
Carboxypeptidase B: ATGHSYEKYNKWETIEAWTQQVATENPALISRSVIGTTFEGRAIYLLKVGKAGQNKPAIFMDCGFHAREWISPAFCQWFVREAVRTYGREIQVTELLDKLDFYVLPVLNIDGYIYTWTKSRFWRKTRSTHTGSSCIGTDPNRNFDAGWCEIGASRNPCDETYCGPAAESEKETKALADFIRNKLSSIKAYLTIHSYSQMMIYPYSYAYKLGENNAELNALAKATVKELASLHGTKYTYGPGATTIYPAAGTSKDWAYDQGIRYSFTFELRDTGRYGFLLPESQIRATCEETFLAIKYVASYVLEHLY
modifications: (His)6-c-myc tag
B2: [G251S, D253K]: HCPB mutant with G251S and D253K, (His)6-c-myc tag (protein, UniProt P15086 111-417, looked up, variant G251S D253K)
Carboxypeptidase B: B1 Carboxypeptidase B with T251S
modifications: (His)6-c-myc tag
B3: D253R HCPB: mature HCPB with aspartate 253 changed to arginine, C-terminal (His)6-c-myc tag (protein, UniProt P15086 111-417, looked up, variant D253R)
Carboxypeptidase B: B1 Carboxypeptidase B with T251G, K253R
modifications: (His)6-c-myc tag
B4: [I201T, D253R]: HCPB mutant with I201T and D253R, (His)6-c-myc tag (protein, UniProt P15086 111-417, looked up, variant I201T D253R)
Carboxypeptidase B: B1 Carboxypeptidase B with I201T, T251G, K253R
modifications: (His)6-c-myc tag
B5: [I201S, D253K]: HCPB mutant with I201S and D253K (protein, UniProt P15086 111-417, looked up, variant I201S D253K)
Carboxypeptidase B: B1 Carboxypeptidase B with I201S, T251G
B6: [G251T,D253R]HCPB: HCPB mutant with G251T and D253R, (His)6-c-myc tag (protein, UniProt P15086 111-417, looked up, variant G251T D253R)
Carboxypeptidase B: B1 Carboxypeptidase B with K253R
modifications: (His)6-c-myc tag

Key:
Format in all cases: biochemical
[1] = Km and kcat of HCPB mutants with Hipp-Glu (Example 7); settings: Hipp-Glu 0.25-8.0 mM; pH 7.5; 5 h at 37° C.
Protocol: (§1) Hipp-Glu and Hipp-Asp were diluted in range 0.25-8.0 mM and 0.25-5.0 mM respectively in 0.025 M Tris-HCL buffer, pH 7.5. Where necessary substrate samples were adjusted to pH 7.5 with 1M NaOH.
(§2) Samples were incubated for 5 h at 37° C. Reactions were terminated by the addition of 500 μl methanol/distilled water (80/20) containing 0.2% TFA. The amount of hippuric acid produced was quantified by HPLC as described in Example 6.
(§3) Km and Vmax values were calculated using the ENZFITTER software programme (Biosoft, Perkin Elmer).

[2] = Conversion of Hipp-Glu by purified HCPB mutants, 30 minutes, HPLC (Example 17); settings: 0.5 mM substrate, 30 minutes at 37° C.
Protocol: (§4) Purified mutants of human CPB (D253K; [G251K,D253R]; [G251N,D253R]; [I201S,D253K]; [G251N,D253K]; [Q54R,D145A,D253K]; [G251T,D253K]; [G251S,D253K]; [A248N,G251N,D253K]; [A248S,G251N,D253K] and [S205N,G251N,D253K]—described in Examples 3, 12, 13, 16, 28, 30, 31, 32 and 33) were assayed for their ability to convert hippuryl-L-glutamic acid (Hipp-Glu—Reference Example 1), hippuryl-L-aspartic acid (Hipp-Asp—Reference Example 2) and hippuryl-L-arginine (Sigma Chemical Company—cat no. H6625) to hippuric acid using a HPLC based assay similar to that described in Example 6.
(§5) Samples were incubated for 30 minutes at 37° C. The reactions were terminated by the addition of 500 μl of 40% methanol, 60% distilled water, 0.2% trifluoro acetic acid and the amount of hippuric acid generated was quantitated by HPLC as described in Example 6 but using a mobile phase of 20% methanol, 80% 50 mM phosphate buffer, pH 6.5. Hippuric acid was detected at 230 nm. The results are shown in Table 5 and are expressed as the percentage conversion of substrate into product in 30 minutes at 37° C.

[3] = Conversion of Hipp-Asp by purified HCPB mutants, 30 minutes, HPLC (Example 17); settings: 0.5 mM substrate, 30 minutes at 37° C.
Protocol: as §4, §5

[4] = Conversion of Hipp-Arg by purified HCPB mutants, 30 minutes, HPLC (Example 17); settings: 0.5 mM substrate, 30 minutes at 37° C.
Protocol: as §4, §5

[5] = Conversion of Hipp-Glu by periplasmic shockate of HCPB mutants, 24 h (Example 18); settings: for Hipp-Glu (% conversion): 24 h at 37° C.
Protocol: (§6) The activity of [G251T,D253K]HCPB was measured using the assay conditions described in Example 17 but using either 50 μl of a neat or 1 in 10 or 1 in 100 dilution of [G251T,D253K]HCPB crude E.coli periplasmic shockate (shockate) sample in place of purified enzyme. Samples were incubated for 24 h at 37° C. […] For other HCPB mutants, the reaction volume was 250 μl and contained 125 μl of neat shockate or 1 in 50 dilution of shockate. The shockate samples were prepared as described in Example 16. The amount of Hippuric acid produced in 24 h was quantified by HPLC as described in Example 17 and the results are shown in Table 6 and are expressed as the percentage conversion of substrate into product in 24 h at 37° C.

[6] = Conversion of Hipp-Asp by periplasmic shockate of HCPB mutants, 24 h (Example 18); settings: 24 h at 37° C.
Protocol: as §6

[7] = Conversion of Hipp-Arg by periplasmic shockate of HCPB mutants, 24 h (Example 18); settings: 24 h at 37° C.
Protocol: as §6

[8] = Conversion of prodrug of Example 24 to drug of Example 25 by HCPB mutants, HPLC (Example 20); settings: 0.5 mM prodrug of Example 24, 5 minutes at 37° C.
Protocol: The reaction was stopped by adding MeCN (500 μl) plus 0.2% Trifluoroacetic acid. The amount of drug produced was then quantified by HPLC.
HPLC separation was carried out as described in Example 6 except that a mobile phase of 70% MeCN, 30% distilled water and 0.1% trifluoroacetic acid was used to achieve separation of prodrug (retention time 3.8 minutes) and drug (retention time 4.9 minutes) and the compounds were detected at 260 nm. The amount of drug produced was quantified from calibration curves generated with known amounts of drug.
The amount of [Q54R,D145A,D253K]HCPB and [G251T,D253K]HCPB mutants was reduced to 0.75 μg in the reaction mixture.

[9] = Activity against Hipp-Glu in crude E. coli periplasmic shockate relative to D253K or D253R HCPB (Example 16)
From the text: (§7) A number of other mutant HCPBs have been constructed in a similar manner to the methods described in Reference Examples 7 and 8, and Examples 12, 13, 14 and 15. In each case oligos were constructed to introduce specific changes in the gene sequence by methods similar to those described above. In some cases additional mutations were identified upon complete sequencing of the mutated gene, and these were presumably introduced during the PCR reactions. Mutants with enzyme activity against substrate analogues (see Example 18 below) have been identified, and examples of these are given in Table 4 below. […] This material is subsequently referred to as periplasmic shockate or shockate and is prepared by the following procedure.
(§8) 1. A single colony was used to inoculate 75 ml of L-broth nutrient media containing 10 μg/ml tetracycline and arabinose to a final concentration of 0.01% (w/v). Incubation was performed at 20° C. with shaking (250 rpm) for about 60 hours.
(§9) 2. The cells were then harvested by centrifugation at 4° C.
(§10) 3. The cell pellet was re-suspended in 300 micro-liters of 20% sucrose (w/v) containing 1 mM EDTA in 200 mM Tris-HCl at pH7.5, and incubated at room-temperature for 15 minutes.
(§11) 4. Periplasmic shockate was generated by the addition of 450 micro-liters of distilled water, and a further incubation at room-temperature for 15 minutes.
(§12) 5. Cellular remains were removed by centrifugation, and the supernatant assayed for enzyme activity as soon as possible after preparation and kept at 4° C. prior to assay.
The activity of [G251T,D253K]HCPB was measured using the assay conditions described in Example 17 but using either 50 μl of a neat or 1 in 10 or 1 in 100 dilution of [G251T,D253K]HCPB crude E.coli periplasmic shockate (shockate) sample in place of purified enzyme. Samples were incubated for 24 h at 37° C. […] The amount of Hippuric acid produced in 24 h was quantified by HPLC as described in Example 17 and the results are shown in Table 6 and are expressed as the percentage conversion of substrate into product in 24 h at 37° C.

[10] = Conversion of Hipp-Asp to hippuric acid by mutant and native human CPB, HPLC assay (Example 6); settings: 5 hr at 37° C.; 4 μg enzyme; 0.5 mM substrate
Protocol: (§13) Purified mutants of human CPB (D253K and D253R; Examples 1-3) and native human CPB, produced as described in Reference Example 12, were assayed for their ability to convert either hippuryl-L-aspartic acid (Hipp-Asp—Reference Example 2), hippuryl-L-glutamic acid (Hipp-Glu—Reference Example 1) or hippuryl-L-arginine (Sigma Chemical Company—cat no. H6625) to hippuric acid using a HPLC based assay.
(§14) The reaction mixture (250 μl) contained 4 μg human CPB (native or mutant) and 0.5 mM Hipp-Asp or Hipp-Glu in 0.025 M Tris-HCL, pH 7.5. Samples were incubated for 5 hr at 37° C. The reactions were terminated by the addition of 250 μl of 80% methanol, 20% distilled water, 0.2% trifluoro acetic acid and the amount of hippuric acid generated was quantified by HPLC.
(§15) HPLC analysis was carried out using a Hewlett Packard 1090 Series 11 (with diode array) HPLC system. Samples (50 μl) were injected onto a Hichrom Hi-RPB column (25 cm) and separated using a mobile phase of 40% methanol, 60% distilled water, 0.1% trifluoro acetic acid at a flow rate of 1 ml/min. The amount of product (hippuric acid) produced was determined from calibration curves generated with known amounts of hippuric acid (Sigma-H6375). The results are shown in Table 1 and are expressed as the percentage conversion of substrate into product in 5 hr at 37° C. with 4 μg enzyme.

[11] = Conversion of Hipp-Glu to hippuric acid by mutant and native human CPB, HPLC assay (Example 6); settings: 5 hr at 37° C.; 4 μg enzyme; 0.5 mM substrate
Protocol: as §13, §14, §15

[12] = Conversion of Hipp-Arg to hippuric acid by mutant and native human CPB, HPLC assay (Example 6); settings: 5 hr at 37° C.; 4 μg enzyme
Protocol: as §13, §14, §15

[13] = Activity against Hipp-Asp in crude E. coli periplasmic shockate relative to D253K or D253R HCPB (Example 16)
From the text: as §7, §8, §9, §10, §11, §12, §6

[14] = Km and kcat of HCPB mutants with Hipp-Asp (Example 7); settings: Hipp-Asp 0.25-5.0 mM; pH 7.5; 5 h at 37° C.
Protocol: as §1, §2, §3

[15] = shockate concentration in reaction mixture 1 %
[16] = shockate concentration in reaction mixture 10 %
[17] = shockate concentration in reaction mixture 50 %

Molecule | Km [1] | kcat, Hipp-Glu [1] | Hipp-Glu (% conversion) ([2]; enzyme 25 μg/ml) | Hipp-Asp (% conversion) ([3]; enzyme 25 μg/ml) | Hipp-Arg (% conversion) ([4]; enzyme 25 μg/ml) | Hipp-Glu (% conversion) [5, 15] | Hipp-Glu, activity relative to D253K HCPB or D253R HCPB [9] | Hipp-Glu (% conversion) [5, 17] | Hipp-Asp (% conversion) [6, 17] | Prodrug Hydrolysis (%) ([8]; enzyme 15 μg/ml) | Hipp-Asp, activity relative to D253K HCPB or D253R HCPB [13] | also measured
B1 | 1100 µM | 75 s⁻¹ | 100% | 14% | 5.2% | 93% | – | – | – | – | – | Hipp-Glu (% conversion) ([2]; enzyme 0.02 μg/ml): 8.2%; Hipp-Asp (% conversion) ([3]; enzyme 0.02 μg/ml): 0%; Hipp-Arg (% conversion) ([4]; enzyme 0.02 μg/ml): 0%; Hipp-Glu (% conversion) ([5]; shockate concentration in reaction mixture 0.1 %): 60%; Hipp-Glu (% conversion) [5, 16]: 100%; fold more active against Hipp-Glu compared to Hipp-Arg ([5]; shockate samples, 24 h): over 900 fold; fold more active than D253K at converting Hipp-Glu to hippuric acid ([5]; shockate samples, 24 h): at least 50 fold; Hipp-Asp (% conversion) [6, 15]: 0%; Hipp-Asp (% conversion) [6, 16]: 2.6%; Hipp-Arg (% conversion) [7, 15]: 0.1%; Hipp-Arg (% conversion) [7, 16]: 0.8%; Prodrug Hydrolysis (%) ([8]; enzyme 1.5 μg/ml): 36.0%
B2 | – | – | 100% | 2.8% | 0.8% | 5% | e (>10 times the activity of D253K HCPB) | 93.8% | 1.6% | – | – | Hipp-Glu (% conversion) ([2]; enzyme 0.25 μg/ml): 14.5%; Hipp-Asp (% conversion) ([3]; enzyme 0.25 μg/ml): 0%; Hipp-Arg (% conversion) ([4]; enzyme 0.25 μg/ml): 0%
B3 | – | – | – | – | – | – | – | – | – | 18.3% | – | Hipp-Asp (% conversion to Hippuric acid) [10]: 72%; Hipp-Glu (% conversion to Hippuric acid) [11]: 52%; Hipp-Arg (% conversion to Hippuric acid) [12]: 3%
B4 | – | – | – | – | – | – | b (activity equivalent to D253R HCPB) | – | – | – | b (activity equivalent to D253R HCPB) | –
B5 | – | – | 27.8% | 33.1% | 0% | – | NAD (No activity detected) | – | – | 72.6% | b (activity equivalent to D253R HCPB) | Hipp-Glu (% conversion) ([2]; enzyme 2.5 μg/ml): 4.6%; Hipp-Asp (% conversion) ([3]; enzyme 2.5 μg/ml): 5.8%; Hipp-Arg (% conversion) ([4]; enzyme 2.5 μg/ml): 0%
B6 | 1600 µM | 7.8 s⁻¹ | 96% | 29% | 0% | – | – | 65.4% | 14.6% | – | – | Km [14]: 1700 µM; kcat, Hipp-Asp [14]: 0.7 s⁻¹; Hipp-Glu (% conversion) ([2]; enzyme 1 μg/ml): 16.2%; Hipp-Asp (% conversion) ([3]; enzyme 1 μg/ml): 1.2%; Hipp-Arg (% conversion) ([4]; enzyme 1 μg/ml): 0%
